T1: LbuC2c2-WT (Leptotrichia buccalis, UniProt C7NBY4 1-1159)
T1 sequence: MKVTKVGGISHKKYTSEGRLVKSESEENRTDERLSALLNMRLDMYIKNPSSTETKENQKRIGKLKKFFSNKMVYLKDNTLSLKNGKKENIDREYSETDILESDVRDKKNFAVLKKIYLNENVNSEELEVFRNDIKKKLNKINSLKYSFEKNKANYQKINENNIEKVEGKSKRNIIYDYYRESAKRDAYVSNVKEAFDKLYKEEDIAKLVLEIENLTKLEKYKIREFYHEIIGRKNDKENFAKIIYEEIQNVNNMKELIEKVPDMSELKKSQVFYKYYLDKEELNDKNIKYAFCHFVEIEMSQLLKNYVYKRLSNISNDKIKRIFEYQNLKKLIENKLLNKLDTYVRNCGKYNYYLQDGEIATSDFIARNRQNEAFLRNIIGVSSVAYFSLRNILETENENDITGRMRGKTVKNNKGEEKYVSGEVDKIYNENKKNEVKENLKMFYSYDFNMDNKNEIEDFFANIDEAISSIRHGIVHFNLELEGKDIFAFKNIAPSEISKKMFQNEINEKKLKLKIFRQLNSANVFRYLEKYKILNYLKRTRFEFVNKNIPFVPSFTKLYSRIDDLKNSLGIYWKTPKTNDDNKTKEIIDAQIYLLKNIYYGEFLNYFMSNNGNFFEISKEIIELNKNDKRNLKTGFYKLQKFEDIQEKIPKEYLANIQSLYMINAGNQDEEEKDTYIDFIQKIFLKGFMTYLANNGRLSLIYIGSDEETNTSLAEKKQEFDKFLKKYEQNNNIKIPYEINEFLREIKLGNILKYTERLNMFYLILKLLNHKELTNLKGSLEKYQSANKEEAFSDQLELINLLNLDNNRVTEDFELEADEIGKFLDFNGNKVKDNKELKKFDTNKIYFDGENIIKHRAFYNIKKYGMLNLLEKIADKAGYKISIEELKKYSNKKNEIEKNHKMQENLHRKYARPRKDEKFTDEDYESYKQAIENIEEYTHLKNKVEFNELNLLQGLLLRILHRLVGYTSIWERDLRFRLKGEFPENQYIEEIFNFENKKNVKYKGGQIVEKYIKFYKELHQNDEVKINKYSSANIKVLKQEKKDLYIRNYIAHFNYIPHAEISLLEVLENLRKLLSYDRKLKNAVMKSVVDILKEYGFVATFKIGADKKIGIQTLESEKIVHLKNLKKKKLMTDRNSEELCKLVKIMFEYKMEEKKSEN


Biological target: T1, LbuC2c2-WT
Assay: filter binding

Binder	Kd [nM]
mature crRNA-A_GG (crLbu_A_GG_AES432) (structured_RNA) RNA: GGCCACCCCAAAAAUGAAGGGGACUAAAACAGGGGCAGAGAUGAUGACCCU	27.1 ± 7.5
mature crRNA-A_GA (crLbu_A_mature_GA_SCK340) (structured_RNA) RNA: GACCACCCCAAAAAUGAAGGGGACUAAAACAGGGGCAGAGAUGAUGACCCU	4.65 ± 0.6

From PMC5576363
